Test results published in patent US20050208120A1.

What was measured:
[1] = molecular target: T cell receptor of the I-A^d restricted OVA specific T cell hybridoma 8DO51.15; test: flow cytometry; biotinylated MHC in liposomes, no peptide
[2] = molecular target: T cell receptors of T cell populations derived from Iα52-supplemented FTOC and expanded with Hi15
[3] = molecular target: T cell receptors of CD4+ cells from BALB/c fetal thymic organ culture (FTOC); test: flow cytometry T cell capture; FTOC alone without added peptide; polyclonal thymocytes
[4] = molecular target: T cell receptors of CD4+ T cells from regional draining lymph nodes of BALB/c mice; test: flow cytometry T cell capture; lymph node cells of Iα52-immunized BALB/c mice; polyclonal
[5] = molecular target: T cell receptors of CD4+ cells from BALB/c fetal thymic organ culture (FTOC); test: flow cytometry T cell capture; FTOC in the presence of 10^-2 mM Iα52; polyclonal thymocytes
[6] = molecular target: T cell receptors of CD4+ T cells from regional draining lymph nodes of BALB/c mice; test: flow cytometry T cell capture; lymph node cells of IFA-only immunized BALB/c mice; polyclonal
[7] = molecular target: T cell receptors of T cell populations derived from Iα52-supplemented FTOC and expanded with Hi15; test: flow cytometry; cells from Iα52-supplemented FTOC after two weeks with 10 ug/ml Hi15; polyclonal
[8] = molecular target: T cell receptor of the I-A^d restricted OVA specific T cell hybridoma 8DO51.15; test: flow cytometry; correct restriction element, irrelevant peptide, on 8D051.15 cells
[9] = molecular target: T cell receptor of the I-A^d restricted OVA specific T cell hybridoma 8DO51.15; test: flow cytometry; liposome:MHC:b-peptide with streptavidin-FITC on hybridoma cells, final MHC concentration 66 ug/ml

B1: biotinylated I-A^d in liposomes without peptide (protein, mouse)
MHC II alpha: EDDIEADHVGFYGTTVYQSPGDIGQYTHEFDGDELFYVDLDKKKTVWRLPEFGQLILFEPQGGLQNIAAEKHNLGILTKRSNFTPATNEAPQATVFPKSPVLLGQPNTLICFVDNIFPPVINITWLRNSKSVTDGVYETSFLVNRDHSFHKLSYLTFIPSDDDIYDCKVEHWGLEEPVLKHWEPEIPAPMSELTE
MHC II beta: GNSERHFVVQFKGECYYTNGTQRIRLVTRYIYNREEYVRYDSDVGEYRAVTELGRPDAEYWNSQPEILERTRAEVDTACRHNYEGPETSTSLRRLEQPNVAISLSRTEALNHHNTLVCSVTDFYPAKIKVRWFRNGQEETVGVSSTQLIRNGDWTFQVLVMLEMTPHQGEVYTCHVEHPSLKSPITVEWRAQSESARSK
- % of cells bound [1]: 6.9%

B2: liposome:I-A^d:biotinylated Iα52 peptide complex (peptide-MHC, mouse)
MHC II alpha: B1 MHC II alpha
MHC II beta: B1 MHC II beta
peptide: ASFEAQGALANIAVDKA
- % of CD4+ cells positive for both peptides [2]: 31.1%
- % of CD4+ cells bound [3]: 20.7%
- % of CD4+ T cells specific [4]: 5.4%
- % of CD4+ cells bound [5]: 50.9%
- % of CD4+ T cells specific [6]: 0.7%
- % of cells bound [7]: 52.8%

B3: liposome:I-A^d:biotinylated Hi15 peptide complex (peptide-MHC)
MHC II alpha: B1 MHC II alpha
MHC II beta: B1 MHC II beta
peptide: TSFPMRGDLAKREPDK
- % of CD4+ cells positive for both peptides [2]: 31.1%
- % of cells positive [2]: 52%
- % positive cells [8]: 8.7%

B4: liposome:I-A^d:biotinylated OVA^323-336 peptide complex (peptide-MHC, mouse)
MHC II alpha: B1 MHC II alpha
MHC II beta: B1 MHC II beta
peptide: ISQAVHAAHAEINE
- % of cells stained positive [9]: 87.2%
